Results reported in patent US20260242721A1, “A SYNTHETIC CELLULAR ADVANCED SIGNAL ADAPTER (SCASA) SYSTEM” (Danmarks Tekniske Universitet, priority 2023, published 2026).

Columns and labels:
[1] = target: T1, Saccharomyces cerevisiae α-factor pheromone receptor (Ste2) (Saccharomyces cerevisiae) (UniProt D6VTK4); assay: cell-based or functional assay
T1 sequence: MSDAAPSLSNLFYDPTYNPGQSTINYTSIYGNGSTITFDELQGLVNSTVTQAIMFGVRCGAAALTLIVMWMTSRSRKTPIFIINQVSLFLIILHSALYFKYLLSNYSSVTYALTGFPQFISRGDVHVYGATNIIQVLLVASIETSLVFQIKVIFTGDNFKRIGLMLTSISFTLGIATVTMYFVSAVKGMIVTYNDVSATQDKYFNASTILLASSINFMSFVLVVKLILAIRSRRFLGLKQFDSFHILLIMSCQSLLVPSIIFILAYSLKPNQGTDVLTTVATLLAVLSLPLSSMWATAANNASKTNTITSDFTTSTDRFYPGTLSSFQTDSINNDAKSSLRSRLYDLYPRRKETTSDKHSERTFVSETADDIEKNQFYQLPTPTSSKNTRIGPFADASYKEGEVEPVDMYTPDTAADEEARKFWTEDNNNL

[2] = tested on: pheromone response pathway (PRP)
Method: To investigate the dose-response features of the selected promoters PMFA2, PFUS1, PAGA2, PFIG.1, PMFA1, PYCL076W, PHPF1, PIME4, PCSS1, PTDH3, PPGK1 and P6XLexOLEU2 upon GPCR stimulation the strains were pre-grown in SC (24 hrs.), whereafter, for each replicate, cells were transferred to 200 μL volumes comprising a 10-fold dilution series of α-factor (0-100 μM) (GenScript) dissolved in SC+1% DMSO, and stimulated for 5 hrs. (30° C., 250 r.p.m.). Flow cytometric measurement was done to quantify yEGFP levels (B525/45-A) and PRP-regulated morphological changes, denoted shmooing (SSC-A) using a NovoCyte Quanteon flow cytometer (Agilent). Data represents means of median fluorescence intensity (mMFI) for three biological replicates and standard deviations hereof. Two-way ANOVA with Tukey's multiple comparisons test was conducted for all conditions.

[3] = tested on: CD19; assay: Yeast surface display (YSD) of CD19, antibody staining and flow cytometry; assay type: cell-based, Saccharomyces cerevisiae; conditions: for fold upregulation of CD19 display relative to unstimulated condition: α-factor 0-100 μM, 20 hrs, promoter driving CD19 in DIX41 background
Method: To investigate the different variants of CD19 modules, yeast cells were grown and, in some cases, stimulated to present CD19 differentially, whereafter they were stained with antibodies and assessed by flow cytometry. Flow cytometric measurement was done using a NovoCyte Quanteon flow cytometer (Agilent) to quantify CD19 by staining with mouse anti-CD19 (FMC63) (Absolute Antibody; Ab00613) and goat anti-mouse-AF647 (polyclonal) (Thermo Fisher; A-21236), detected in R667/30-H, as well as rabbit anti-HA (RM305) (Thermo Fisher; MA5-27915) and goat anti-rabbit-AF488 (polyclonal) (Thermo Fisher; A-11008), detected in B525/45-H (see FIG. 7), and to measure PRP-regulated morphological changes (SSC-H). […] Data represents means of median fluorescence intensity (mMFI) for three biological replicates and standard deviations hereof. Two-way ANOVA with multiple comparisons tests was conducted for all conditions. Histograms are representative replicates. No SSC-normalization was used in the evaluation of the effector module, unlike in Example 1, as it is the absolute response of all effects combined that constitute the total output that CAR T cells interpret and react to.
For conventional YSD using strain EBY100 and pCT-plasmid-based expression (Chao et al. 2006, Isolating and engineering human antibodies using yeast surface display. Nature Protocols, 1(2), 755-768), strains were pre-grown in SC −trp, then transferred to 5 mL SC −trp +2% Gal for induction of YSD or +2% Gluc as a negative control (24 hrs., 30° C., 250 r.p.m.). NALM6 was cultured in RPMI 1640 medium (ATCC modification) (Thermo Fisher) with 10% fetal bovine serum and 1% pen-strep (RPMI+10% FBS) at 37° C. with 5% CO2. For the investigation of PGAL1-titratability of DIX41 with pMAD58 and DIX74, strains were pre-grown in SC −ura and SC, respectively, then transferred to SC −ura and SC, respectively, with varying concentrations of galactose (0.0002%-2% Gal), using raffinose as compensating carbon source, and YSD was induced for 24 hrs. (30° C., 250 r.p.m.). Strains were similarly grown in 2% Gluc as negative controls. For the investigation of the strain library with constitutive and dynamically regulated expression of CD19 (Background strain/No YSD, PPGK1-Empty, PMFA2-CD19, PFUS1-CD19, PFIG.1-CD19, PMFA1-CD19, PHPF1-CD19, PTDH3-CD19, PPGK1-CD19) the strains were pre-grown in SC, whereafter, for each replicate, 50.000 cells were transferred to 300 μL volumes comprising a 10-fold dilution series of α-factor (0-100 μM) (GenScript) dissolved in SC+1% DMSO, and stimulated for 20 hrs. (30° C., 250 r.p.m.).

For “α-factor (GenScript) (from UniProt P01149 90-102) (peptide)”, the fold change of induction of yEGFP, SSC-normalized, promoter PFIG1, maximum at 100 µM α-factor [1] was 129 fold, the fold change of induction of yEGFP, SSC-normalized, promoter PHPF1 [1] was 0.62 fold and the fold change of yEGFP, unnormalized, promoter PFIG1, 1 µM α-factor [1] was 517 fold. For the same molecule, the fold change of yEGFP, unnormalized, promoter PFIG1, 100 µM α-factor [1] was 483 fold, the fold upregulation of CD19 display, promoter PFIG1, 20 hrs α-factor [1] was 630 fold and the fold upregulation of CD19 display, promoter PFUS1, 20 hrs α-factor [1] was 774 fold. It also gave a fold upregulation of CD19 display, promoter PTDH3 [1] of 3.1 fold, a general PRP-induced expression boost of yEGFP after 5 hrs of GPCR stimulation [1] of 4.01 fold and a maximal fold change of CD19 display, promoters PHPF1, PTDH3 and PPGK1, lower end [1] of 2.9 to 3.8 fold. The maximal fold change of CD19 display, promoters PHPF1, PTDH3 and PPGK1, upper end [1] was 2.9 to 3.8 fold.

In the case of α-factor [reference compound], the “α-factor concentration at which shmooing (SSC-A) was most intense” value ([2]; across all strains, 5 hrs) is reported as no less than 0.01 µM and the “α-factor concentration at which shmooing generally peaked” value ([2]; across all strains, 5 hrs) is reported as 1 µM.

B1: PTDH3: constitutive Saccharomyces cerevisiae promoter, SEQ ID NO: 10, processing module (DIX28, DIX49) (nucleic acid, listed as Saccharomyces cerevisiae)
DNA: CTATTTTCGAGGACCTTGTCACCTTGAGCCCAAGAGAGCCAAGATTTAAATTTTCCTATGACTTGATGCAAATTCCCAAAGCTAATAACATGCAAGACACGTACGGTCAAGAAGACATATTTGACCTCTTAACAGGTTCAGACGCGACTGCCTCATCAGTAAGACCCGTTGAAAAGAACTTACCTGAAAAAAACGAATATATACTAGCGTTGAATGTTAGCGTCAACAACAAGAAGTTTAATGACGCGGAGGCCAAGGCAAAAAGATTCCTTGATTACGTAAGGGAGTTAGAATCATTTTGAATAAAAAACACGCTTTTTCAGTTCGAGTTTATCATTATCAATACTGCCATTTCAAAGAATACGTAAATAATTAATAGTAGTGATTTTCCTAACTTTATTTAGTCAAAAAATTAGCCTTTTAATTCTGCTGTAACCCGTACATGCCCAAAATAGGGGGCGGGTTACACAGAATATATAACATCGTAGGTGTCTGGGTGAACAGTTTATTCCTGGCATCCACTAAATATAATGGAGCCCGCTTTTTAAGCTGGCATCCAGAAAAAAAAAGAATCCCAGCACCAAAATATTGTTTTCTTCACCAACCATCAGTTCATAGGTCCATTCTCTTAGCGCAACTACAGAGAACAGGGGCACAAACAGGCAAAAAACGGGCACAACCTCAATGGAGTGATGCAACCTGCCTGGAGTAAATGATGACACAAGGCAATTGACCCACGCATGTATCTATCTCATTTTCTTACACCTTCTATTACCTTCTGCTCTCTCTGATTTGGAAAAAGCTGAAAAAAAAGGTTGAAACCAGTTCCCTGAAATTATTCCCCTACTTGACTAATAAGTATATAAAGACGGTAGGTATTGATTGTAATTCTGTAAATCTATTTCTTAAACTTCTTAAATTCTACTTTTATAGTTAGTCTTTTTTTTAGTTTTAAAACACCAAGAACTTAGTTTCGAATAAACACACATAAACAAACAAA
B1 was tested, and the “fold upregulation of CD19 display relative to unstimulated condition” value [3] was 3.1±0.3 fold and the “change of absolute CD19 output on upregulation compared with that of PFUS1” value ([3]; α-factor stimulation) was 150.2%.

B2: PFUS1: pheromone-responsive Saccharomyces cerevisiae promoter, SEQ ID NO: 8, processing module (yEGFP strain DIX24, CD19 strain DIX45) (nucleic acid, listed as Saccharomyces cerevisiae)
DNA: TAATAATCAGAACTCCAACAATAGTCAACAGGGCTATAACCAATCCTATCAAAACGGTAACCAAAATAGTCAAGGTTACAATAATCAACAGTACCAAGGTGGCAACGGTGGTTACCAACAACAACAGGGACAATCTGGTGGTGCTTTTTCCTCATTGGCCTCCATGGCTCAATCTTACTTAGGTGGTGGACAAACTCAATCCAACCAACAGCAATACAATCAACAAGGCCAAAACAACCAGCAGCAATACCAGCAACAAGGCCAAAACTATCAGCATCAACAACAGGGTCAGCAGCAGCAACAAGGCCACTCCAGTTCATTCTCAGCTTTGGCTTCCATGGCAAGTTCCTACCTGGGCAATAACTCCAATTCAAATTCGAGTTATGGGGGCCAGCAACAGGCTAATGAGTATGGTAGACCGCAACAGAATGGTCAACAGCAATCCAATGAGTACGGAAGACCGCAATACGGCGGAAACCAGAACTCCAATGGACAGCACGAATCCTTCAATTTTTCTGGCAACTTTTCTCAACAGAACAATAACGGCAACCAGAACCGCTACTGAACGATGATTCAGTTCGCCTTCTATCCTTTGTTTACGTATTTGTTTATATATATAACTTTATTTTTTTTTATTAATTGGGCTGCAAGACAATTTTGTTGTCAGTGATGCCTCAATCCTTCTTTTGCTTCCATATTTACCATGTGGACCCTTTCAAAACAGAGTTGTATCTCTGCAGGATGCCCTTTTTGACGTATTGAATGGCATAATTGCACTGTCACTTTTCGCGCTGTCTCATTTTGGTGCGATGATGAAACAAACATGAAACGTCTGTAATTTGAAACAAATAACGTAATTCTCGGGATTGGTTTTATTTAAATGACAATGTAAGAGTGGCTTTGTAAGGTATGTGTTGCTCTTAAAATATTTGGATACGACATCCTTTATCTTTTTTCCTTTAAGAGCAGGATATAAGCCATCAAGTTTCTGAAAATCAAA
For B2, the “CD19 level at unstimulated conditions” value ([3]; no GPCR stimulation) was “extremely low levels of CD19 at the limit of detection”, the “fold upregulation of CD19 display relative to unstimulated condition” value [3] was 774±165 fold and the “maximal absolute yEGFP output relative to orthogonal P6xLexOLEU2 ste12Δ0 strain” value ([2]; PFUS1 STE12+ strain) was 4.2 fold. For the same molecule, the “promoter strength relative to P6xLexOLEU2 at maximal induction” value ([2]; SSC-normalized promoter activity) was 1.4 fold.
